Assay results from article PMC2192333 (The Journal of Experimental Medicine, 1996).

What was measured:
[1] = test system: ICAM-1; settings: cited from earlier work
[2] = test system: ICAM-1; experiment: Adhesion of 293 cells transfected with CD11a I domain mutants/CD18 to ICAM-1Fc; format: cell-based, human; settings: wide range of concentrations of ICAM-1, data not shown

| Molecule | binding to ICAM-1 [1] | adhesion to ICAM-1, wide range of ICAM-1 concentrations [2] |
| --- | --- | --- |
| D137A (protein, UniProt P20701 26-1170, looked up, variant D137A) Integrin alpha-L: YNLDVRGARSFSPPRAGRHFGYRVLQVGNGVIVGAPGEGNSTGSLYQCQSGTGHCLPVTLRGSNYTSKYLGMTLATDPTDGSILACDPGLSRTCDQNTYLSGLCYLFRQNLQGPMLQGRPGFQECIKGNVDLVFLFAGSMSLQPDEFQKILDFMKDVMKKLSNTSYQFAAVQFSTSYKTEFDFSDYVKRKDPDALLKHVKHMLLLTNTFGAINYVATEVFREELGARPDATKVLIIITDGEATDSGNIDAAKDIIRYIIGIGKHFQTKESQETLHKFASKPASEFVKILDTFEKLKDLFTELQKKIYVIEGTSKQDLTSFNMELSSSGISADLSRGHAVVGAVGAKDWAGGFLDLKADLQDDTFIGNEPLTPEVRAGYLGYTVTWLPSRQKTSLLASGAPRYQHMGRVLLFQEPQGGGHWSQVQTIHGTQIGSYFGGELCGVDVDQDGETELLLIGAPLFYGEQRGGRVFIYQRRQLGFEEVSELQGDPGYPLGRFGEAITALTDINGDGLVDVAVGAPLEEQGAVYIFNGRHGGLSPQPSQRIEGTQVLSGIQWFGRSIHGVKDLEGDGLADVAVGAESQMIVLSSRPVVDMVTLMSFSPAEIPVHEVECSYSTSNKMKEGVNITICFQIKSLIPQFQGRLVANLTYTLQLDGHRTRRRGLFPGGRHELRRNIAVTTSMSCTDFSFHFPVCVQDLISPINVSLNFSLWEEEGTPRDQRAQGKDIPPILRPSLHSETWEIPFEKNCGEDKKCEANLRVSFSPARSRALRLTAFASLSVELSLSNLEEDAYWVQLDLHFPPGLSFRKVEMLKPHSQIPVSCEELPEESRLLSRALSCNVSSPIFKAGHSVALQMMFNTLVNSSWGDSVELHANVTCNNEDSDLLEDNSATTIIPILYPINILIQDQEDSTLYVSFTPKGPKIHQVKHMYQVRIQPSIHDHNIPTLEAVVGVPQPPSEGPITHQWSVQMEPPVPCHYEDLERLPDAAEPCLPGALFRCPVVFRQEILVQVIGTLELVGEIEASSMFSLCSSLSISFNSSKHFHLYGSNASLAQVVMKVDVVYEKQMLYLYVLSGIGGLLLLLLIFIVLYKVGFFKRNLKEKMEAGRGVPNGIPAEDSEQLASGQEAGDPGCLKPLHEKDSESGGGKD | critical to ICAM-1 binding | – |
| H/M53: human Ile-126 and Asn-129 replaced with murine residues Met and Lys, respectively (protein, UniProt P20701 26-1170, looked up, variant I126M N129K) Integrin alpha-L: YNLDVRGARSFSPPRAGRHFGYRVLQVGNGVIVGAPGEGNSTGSLYQCQSGTGHCLPVTLRGSNYTSKYLGMTLATDPTDGSILACDPGLSRTCDQNTYLSGLCYLFRQNLQGPMLQGRPGFQECMKGKVDLVFLFDGSMSLQPDEFQKILDFMKDVMKKLSNTSYQFAAVQFSTSYKTEFDFSDYVKRKDPDALLKHVKHMLLLTNTFGAINYVATEVFREELGARPDATKVLIIITDGEATDSGNIDAAKDIIRYIIGIGKHFQTKESQETLHKFASKPASEFVKILDTFEKLKDLFTELQKKIYVIEGTSKQDLTSFNMELSSSGISADLSRGHAVVGAVGAKDWAGGFLDLKADLQDDTFIGNEPLTPEVRAGYLGYTVTWLPSRQKTSLLASGAPRYQHMGRVLLFQEPQGGGHWSQVQTIHGTQIGSYFGGELCGVDVDQDGETELLLIGAPLFYGEQRGGRVFIYQRRQLGFEEVSELQGDPGYPLGRFGEAITALTDINGDGLVDVAVGAPLEEQGAVYIFNGRHGGLSPQPSQRIEGTQVLSGIQWFGRSIHGVKDLEGDGLADVAVGAESQMIVLSSRPVVDMVTLMSFSPAEIPVHEVECSYSTSNKMKEGVNITICFQIKSLIPQFQGRLVANLTYTLQLDGHRTRRRGLFPGGRHELRRNIAVTTSMSCTDFSFHFPVCVQDLISPINVSLNFSLWEEEGTPRDQRAQGKDIPPILRPSLHSETWEIPFEKNCGEDKKCEANLRVSFSPARSRALRLTAFASLSVELSLSNLEEDAYWVQLDLHFPPGLSFRKVEMLKPHSQIPVSCEELPEESRLLSRALSCNVSSPIFKAGHSVALQMMFNTLVNSSWGDSVELHANVTCNNEDSDLLEDNSATTIIPILYPINILIQDQEDSTLYVSFTPKGPKIHQVKHMYQVRIQPSIHDHNIPTLEAVVGVPQPPSEGPITHQWSVQMEPPVPCHYEDLERLPDAAEPCLPGALFRCPVVFRQEILVQVIGTLELVGEIEASSMFSLCSSLSISFNSSKHFHLYGSNASLAQVVMKVDVVYEKQMLYLYVLSGIGGLLLLLLIFIVLYKVGFFKRNLKEKMEAGRGVPNGIPAEDSEQLASGQEAGDPGCLKPLHEKDSESGGGKD | – | identical binding as that of wild-type CD11a |
